Legend:
HLA-A*02 = HLA-A*02 (Homo sapiens, UniProt P04439, D140Y/D185E/D98H/E176V/E277Q/G131W/G231S/I119V/I121R/I166T/I218V/N151K/N90K/P208A/P217A/Q86G/Q94H/R138H/R169H); test: MHC binding assay: UV-ligand exchange, beta2m ELISA (peptide exchange yield); conditions: binding to HLA-A*02, β2m ELISA
From the text: Candidate peptides for T cell based therapies according to the present invention were further tested for their MHC binding capacity (affinity). The individual peptide-MHC complexes were produced by UV-ligand exchange, where a UV-sensitive peptide is cleaved upon UV-irradiation, and exchanged with the peptide of interest as analyzed. Only peptide candidates that can effectively bind and stabilize the peptide-receptive MHC molecules prevent dissociation of the MHC complexes. To determine the yield of the exchange reaction, an ELISA was performed based on the detection of the light chain (β2m) of stabilized MHC complexes. The assay was performed as generally described in Rodenko et al. (Rodenko et al., 2006).
96 well MAXISorp plates (NUNC) were coated over night with 2 ug/ml streptavidin in PBS at room temperature, washed 4× and blocked for 1 h at 37° C. in 2% BSA containing blocking buffer. […] Peptide-MHC monomers of the UV-exchange reaction were diluted 100 fold in blocking buffer. Samples were incubated for 1 h at 37° C., washed four times, incubated with 2 ug/ml HRP conjugated anti-βm for 1 h at 37° C., washed again and detected with TMB solution that is stopped with […]. Absorption was measured at 450 nm. Candidate peptides that show a high exchange yield (preferably higher than 50%, most preferred higher than 75%) are generally preferred for a generation and production of antibodies or fragments thereof, and/or T cell receptors or fragments thereof, as they show sufficient avidity to the MHC molecules and prevent dissociation of the MHC complexes.

[1] = tested on: CD8+ T cells of healthy HLA-A*02+ donors; test: In vitro immunogenicity: priming of CD8+ T cells with aAPCs loaded with HLA-A*02/peptide complexes and anti-CD28, multimer staining; type: cell-based, human; conditions: HLA-A*02 peptides of Table 12B
Method: CD8+ T cells were primed using artificial APCs coated with anti-CD28 mAb and HLA-A*02 in complex with SEQ ID NO: 2 peptide (FIG. 4A, left panel), SEQ ID NO: 9 peptide (FIG. 4B, left panel) and SEQ ID NO: 331 peptide (FIG. 4C, left panel), respectively. After three cycles of stimulation, the detection of peptide-reactive cells was performed by 2D multimer staining with A*02/SEQ ID NO: 2 (A), A*02/SEQ ID NO: 9 (B) or A*02/SEQ ID NO: 331 (C). Right panels (FIGS. 4A, 4B and 4C) show control staining of cells stimulated with irrelevant A*02/peptide complexes. Viable singlet cells were gated for CD8+ lymphocytes. Boolean gates helped excluding false-positive events detected with multimers specific for different peptides. Frequencies of specific multimer+ cells among CD8+ lymphocytes are indicated.
In order to obtain information regarding the immunogenicity of the TUMAPs of the present invention, the inventors performed investigations using an in vitro T-cell priming assay based on repeated stimulations of CD8+ T cells with artificial antigen presenting cells (aAPCs) loaded with peptide/MHC complexes and anti-CD28 antibody.
In order to perform in vitro stimulations by artificial antigen presenting cells loaded with peptide-MHC complex (pMHC) and anti-CD28 antibody, the inventors first isolated CD8+ T cells from fresh HLA-A*02 leukapheresis products via positive selection using CD8 microbeads (Miltenyi Biotec, Bergisch-Gladbach, Germany) of healthy donors obtained from the University clinics Mannheim, Germany, after informed consent.
PBMCs and isolated CD8+ lymphocytes were incubated in T-cell medium (TCM) until use consisting of RPMI-Glutamax (Invitrogen, Karlsruhe, Germany) supplemented with 10% heat inactivated human AB serum (PAN-Biotech, Aidenbach, Germany), 100 U/ml Penicillin/100 μg/ml Streptomycin (Cambrex, Cologne, Germany), 1 mM sodium pyruvate (CC Pro, Oberdorla, Germany), 20 μg/ml Gentamycin (Cambrex). 2.5 ng/ml IL-7 (PromoCell, Heidelberg, Germany) and 10 U/ml IL-2 (Novartis Pharma, Nurnberg, Germany) were also added to the TCM at this step.
Generation of pMHC/anti-CD28 coated beads, T-cell stimulations and readout was performed in a highly defined in vitro system using four different pMHC molecules per stimulation condition and 8 different pMHC molecules per readout condition.
The purified co-stimulatory mouse IgG2a anti human CD28 Ab 9.3 (Jung et al., 1987) was chemically biotinylated using Sulfo-N-hydroxysuccinimidobiotin as recommended by the manufacturer (Perbio, Bonn, Germany). Beads used were 5.6 μm diameter streptavidin coated polystyrene particles (Bangs Laboratories, Illinois, USA).
pMHC used for positive and negative control stimulations were A*0201/MLA-001 (peptide […] (SEQ ID NO. 418) from modified Melan-A/MART-1) and A*0201/DDX5-001 ([…] from DDX5, SEQ ID NO. 419), respectively.
800.000 beads/200 μl were coated in 96-well plates in the presence of 4×12.5 ng different biotin-pMHC, washed and 600 ng biotin anti-CD28 were added subsequently in a volume of 200 μl. Stimulations were initiated in 96-well plates by co-incubating 1×10^6 CD8+ T cells with 2×10^5 washed coated beads in 200 μl TCM supplemented with 5 ng/ml IL-12 (PromoCell) for 3 days at 37° C. Half of the medium was then exchanged by fresh TCM supplemented with 80 U/ml IL-2 and incubating was continued for 4 days at 37° C. This stimulation cycle was performed for a total of three times. For the pMHC multimer readout using 8 different pMHC molecules per condition, a two-dimensional combinatorial coding approach was used as previously described (Andersen et al., 2012) with minor modifications encompassing coupling to 5 different fluorochromes. Finally, multimeric analyses were performed by staining the cells with Live/dead near IR dye (Invitrogen, Karlsruhe, Germany), CD8-FITC antibody clone SKI (BD, Heidelberg, Germany) and fluorescent pMHC multimers. For analysis, a BD LSRII SORP cytometer equipped with appropriate lasers and filters was used. […]

**Q.** “2 (ALYGKLLKL; listed as Homo sapiens) [compound 2]” was tested. Which “Peptide exchange (MHC class I binding score, peptide exchange yield)” value (shortened to “Peptide exchange”) (HLA-A*02) did it give?
**A.** +++ (50%-75% = +++)

**Q.** And the “Wells positive [%]” value [1]?
**A.** ++++ (>= 70 % = ++++)

**Q.** How did the “Peptide exchange” value (HLA-A*02) turn out when “7 (AAAAKVPEV; listed as Homo sapiens) [compound 7]” was run?
**A.** +++ (50%-75% = +++)

**Q.** What about the “Wells positive [%]” value [1] of the same substance?
**A.** + (<20% = +)

**Q.** What does the source list for “8 (KLGPFLLNA; listed as Homo sapiens) [compound 8]”?
**A.** Peptide exchange (MHC class I binding score, peptide exchange yield) (HLA-A*02): +++ (50%-75% = +++); Wells positive [%] [1]: +++ (50%-69% = +++)

**Q.** “9 (FLGDYVENL; listed as Homo sapiens) [compound 9]” was tested. Which “Peptide exchange” value (HLA-A*02) did it give?
**A.** ++ (20%-49% = ++)

**Q.** And the “Wells positive [%]” value [1]?
**A.** + (<20% = +)

**Q.** For “17 (ILHEHHIFL; listed as Homo sapiens) [compound 17]”, which “Peptide exchange” value (HLA-A*02) is on record?
**A.** +++ (50%-75% = +++)

**Q.** What about the “Wells positive [%]” value [1] of the same substance?
**A.** + (<20% = +)

**Q.** How did the “Peptide exchange” value (HLA-A*02) turn out when “43 (LLWAGPVTA; listed as Homo sapiens) [compound 43]” was run?
**A.** +++ (50%-75% = +++)

**Q.** What about the “Wells positive [%]” value [1] of the same substance?
**A.** ++++ (>= 70 % = ++++)

**Q.** What does the source list for “322 (ALVSGGVAQA; listed as Homo sapiens) [compound 322]”?
**A.** Peptide exchange (MHC class I binding score, peptide exchange yield) (HLA-A*02): +++ (50%-75% = +++); Wells positive [%] [1]: + (<20% = +)

**Q.** “331 (AIWKELISL; listed as Homo sapiens) [compound 331]” was tested. Which “Peptide exchange” value (HLA-A*02) did it give?
**A.** +++ (50%-75% = +++)

**Q.** What about the “Wells positive [%]” value [1] of the same substance?
**A.** ++ (20%-49% = ++)
